# Results taken from US7425614B2, “Neuroprotective therapeutics preventing ERK/MAPK activation through the NMDA receptor” (Children's Medical Center Corporation, priority 2003, dated 2008).
# B1: NR2B-BD: peptide of amino acids 886-1310 of the NR2B C-terminal domain that binds RasGRF1; used as NusA or EGFP fusion (protein)
# chain: SPTATMNNTHSNILRLLRTAKNMANLSGVNGSPQSALDFIRRESSVYDISEHRRSFTHSDCKSYNNPPCEENLFSDYISEVERTFGNLQLKDSNVYQDHYHHHHRPHSIGSTSSIDGLYDCDNPPFTTQPRSISKKPLDIGLPSSKHSQLSDLYGKFSFKSDRYSGHDDLIRSDVSDISTHTVTYGNIEGNAAKRRKQQYKDSLKKRPASAKSRREFDEIELAYRRRPPRSPDHKRYFRDKEGLRDFYLDQFRTKENSPHWEHVDLTDIYKERSDDFKRDSVSGGGPCTNRSHLKHGTGEKHGVVGGVPAPWEKNLTNVDWEDRSGGNFCRSCPSKLHNYSSTVAGQNSGRQACIRCEACKKAGNLYDISKDNSLQELDQPAAPVAVTSNASSTKYPQSPTNSKAQKKNRNKLRRQHSYDTFVDL
# modifications: left off: small tags and cut ends
# notes: used as NusA or EGFP fusion
# Test system: ERK
# Experiment: phospho-ERK immunocytochemistry in cultured hippocampal neurons
# Type: cell-based, rat
# Settings: cultured hippocampal neurons
# Experimental: Neurons from 18 day rat embryos were dissociated using trypsin and plated on coverslips coated with poly-L-ysine in minimal essential medium (MEM) with 10% NU serum (BD Biosciences, Le Pont de Claix, France) at densities of 30,000 cells/cm^2 as described (Brewer, G. J. (1995) J. Neurosci. Res. 42, 674-683). On days 7 and 11 of culture incubation, half of the medium was changed to MEM with 2% B27 supplement (Invitrogen).
# Cells were transfected with cDNA for EGFP fusion proteins (LipofectAMINE 2000; Invitrogen) or by pseudoviral infection using a Sindbis expression system (Invitrogen). Neurons were incubated with cDNA and LipofectAMINE for 2 hr, rinsed, and incubated with culture media (MEM with 2% of B27 supplement) 17 hr prior to the experiment. For viral delivery, neuronal cultures were incubated 30 min with pseudoviral constructs diluted 200-500× in culture media. Cultures were rinsed and incubated in media for 15 hr. 0.1% to 1.5% of neurons were fluorescent after expressing LipofectAMINE-delivered constructs while Sindbis infection yielded 1%-10% transfection efficiency. Most of the experiments were performed on 12-14 days in vitro (div) cultures unless otherwise indicated.
# Three hours before stimulation, TTX (1 μM), CNQX (40 μM), APV (100 μM), and nimodipine (5 μM) were added to neurons. For stimulation, coverslips with neurons were transferred into the following solutions.
# (1) 100 μM NMDA, 10 μM glycine, 1 μM TTX, 40 μM CNQX, 5 μM nimodipine dissolved in culture media and incubated for 3 min. […]
# After stimulation, neurons were fixed with 4% formaldehyde and labeled with rabbit anti-phospho-p44/42 ERK antibody (Cell Signaling) and with mouse anti-MAP2 antibody (Sternberger Monoclonals). Cy3-conjugated goat anti-rabbit IgG and Cy5-conjugated goat antimouse IgG (Jackson Immunoresearch Laboratories, West Grove, Pa.) were secondary antibodies. NMDA and all antagonists were from Tocris Neuramin. BDNF was from Calbiochem. Images were acquired with an Olympus Fluoview-500 confocal microscope (40×; 1.0 NA) and quantified using Olympus Fluoview software. In each experiment, the pERK fluorescence of the cell soma was measured for 25 neurons taken from consecutive fields. Phospho-ERK fluorescence data were normalized to the values obtained in nontransfected cells after NMDA stimulation. The background fluorescence (mean fluorescence of nonstimulated neurons) was subtracted prior to normalization.
molecule,measurement,setting,value
B1,BDNF-induced ERK activation,100 ng/ml BDNF,had no effect
same,NMDA-induced (NMDAR-dependent) ERK activation,100 μM NMDA,inhibit
same,depolarization-induced ERK activation,50 mM KCl,had no effect
